{"source": "paper PMC8752864", "about": "(Nature Communications, 2022)", "binders": {"B1": {"name": "Nb8194 (VHH)", "VHH": "QVQLQESGGGLVQPGGSLRLSCAASGFTFSNYYMSWVRQAPGEGREWVSSINRDGSNTYYADSVKGRFTIARDNVKNTLYLLMDSLKSDDTAVYYCTKGSNWPYDNWGQGTQVTVSS", "notes": "source: E. coli WK6, periplasm, purified (Ni-NTA)"}, "B2": {"name": "Nb8193 (VHH)", "VHH": "QVQLQESGGGLVQPGGSLRLSCAASGFTFKMYAMSWVRQAPGKGLEWVSSINSAGGSTSYVDSVKGRFTISRDNAKNTLYLQMNSLKPDDTAVYYCVQGRNWPYDYRGQGTQVTVSS", "notes": "as for B1"}, "B3": {"name": "Nb8208 (VHH)", "VHH": "QVQLQESGGGLVQPGGSLRLSCAASGRTFSMYAMAWFRQAPGKQREFVGTISRSGDYALHADAVKGRFTISRDNAKNTVYLQMNSLKLEDTAVYYCAAGAYHSKDKTLYDYWGQGTQVTVSS", "notes": "as for B1"}, "B4": {"name": "Nb8197 (VHH)", "VHH": "QVQLQESGGGLVQPGGSLRLSCAASGFTFSSYAMSWVRQAPGKGLEWVSSITSAFGRTSYVSSVKGRFTISRDNAKNTLYLQMNSLKPEDTAVYYCAQGASWPYRYRGQGTQVTVSS"}, "B5": {"name": "RNA polymerase of influenza A/Brevig Mission/1/1918 (H1N1) virus, heterotrimer of PA, PB1 and PB2 (complex)", "chain 1": "[…]", "chain 2": "MDVNPTLLFLKVPAQNAISTTFPYTGDPPYSHGTGTGYTMDTVNRTHQYSEKGRWTTNTETGAPQLNPIDGPLPEDNEPSGYAQTDCVLEAMAFLEESHPGIFENSCLETMEVVQQTRVDKLTQGRQTYDWTLNRNQPAATALANTIEVFRSNGLTANESGRLIDFLKDVMESMDKEEMEITTHFQRKRRVRDNMTKKMVTQRTIGKKKQRLNKRSYLIRALTLNTMTKDAERGKLKRRAIATPGMQIRGFVYFVETLARSICEKLEQSGLPVGGNEKKAKLANVVRKMMTNSQDTELSFTITGDNTKWNENQNPRMFLAMITYITRNQPEWFRNVLSIAPIMFSNKMARLGKGYMFESKSMKLRTQIPAEMLASIDLKYFNDSTRKKIEKIRPLLIDGTASLSPGMMMGMFNMLSTVLGVSILNLGQKRYTKTTYWWDGLQSSDDFALIVNAPNHEGIQAGVDRFYRTCKLLGINMSKKKSYINRTGTFEFTSFFYRYGFVANFSMELPSFGVSGINESADMSIGVTVIKNNMINNDLGPATAQMALQLFIKDYRYTYRCHRGDTQIQTRRSFEIKKLWEQTRSKAGLLVSDGGPNLYNIRNLHIPEVCLKWELMDEDYQGRLCNPLNPFVSHKEIESVNNAVMMPAHGPAKNMEYDAVATTHSWIPKRNRSILNTSQRGILEDEQMYQKCCNLFEKFFPSSSYRRPVGISSMVEAMVSRARIDARIDFESGRIKKEEFAEIMKICSTIEELRRQK", "chain 3": "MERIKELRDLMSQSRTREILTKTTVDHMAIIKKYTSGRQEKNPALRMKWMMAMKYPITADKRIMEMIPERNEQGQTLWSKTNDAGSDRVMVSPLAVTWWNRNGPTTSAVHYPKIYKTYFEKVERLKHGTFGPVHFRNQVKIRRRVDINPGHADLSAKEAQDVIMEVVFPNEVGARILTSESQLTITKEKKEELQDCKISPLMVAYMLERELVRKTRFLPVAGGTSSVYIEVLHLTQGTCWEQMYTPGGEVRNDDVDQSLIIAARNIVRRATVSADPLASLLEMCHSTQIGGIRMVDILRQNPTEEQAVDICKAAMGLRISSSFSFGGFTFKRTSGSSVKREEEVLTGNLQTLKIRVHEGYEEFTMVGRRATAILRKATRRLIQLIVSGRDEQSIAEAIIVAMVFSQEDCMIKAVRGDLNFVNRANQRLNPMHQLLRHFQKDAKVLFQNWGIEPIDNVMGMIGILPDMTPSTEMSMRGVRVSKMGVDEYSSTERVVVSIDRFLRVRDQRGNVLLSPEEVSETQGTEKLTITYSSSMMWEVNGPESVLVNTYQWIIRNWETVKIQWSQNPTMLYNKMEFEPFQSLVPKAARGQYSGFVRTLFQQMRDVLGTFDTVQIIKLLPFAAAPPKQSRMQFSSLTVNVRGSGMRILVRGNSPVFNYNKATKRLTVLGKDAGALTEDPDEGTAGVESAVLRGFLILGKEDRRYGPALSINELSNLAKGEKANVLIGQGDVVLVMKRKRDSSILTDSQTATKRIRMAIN", "notes": "also called 1918 polymerase; 1918 pandemic influenza virus polymerase; copies: + +"}, "B6": {"name": "polymerase basic 2 (PB2) subunit of influenza A/Brevig Mission/1/1918 (H1N1) virus (natural protein)", "chain": "B5 chain 3", "notes": "the PB2 chain of m1"}, "B7": {"name": "Nb8205 (VHH)", "chain": "QVQLQESGGGMVQPGGSLRLSCLASGFTFSNYAMTWVRQAPGKGPEWVSMVSNNGADTTYTDSVKGRFTISRDNAKNTLYLRMNNVKPEDSAVYYCAKRRYGGIWTGQPTDYDYLGQGTVTVSS"}, "B8": {"name": "Nb8196 (VHH)", "VHH": "QVQLQESGGGLVQAGDSLRLSCTTSGSSLSRYGVGWFRQAPGEEREFGASISWNGATYYADSVKGRFTISRDNAKNTVYLQMNSLKAEDTAVYYCAARSDGYLTPYLSPVYWGQGTQVTVSS", "notes": "as for B1"}, "B9": {"name": "Nb8192 (VHH)", "VHH": "QVQLQESGGGLVQAGASLRLSCAASGRTFMGWFRQAPGQEREFVAAIDAFGINTYYADSAKGRFTISRDSAKNTVYLQMNSLKPEDTAVYYCAATLRGTQPGAVMQWRPDYWGQGTQVTVSS", "notes": "as for B1"}, "B10": {"name": "Nb8200 (VHH)", "VHH": "QVQLQESGGGLVQAGDSLRLSCAASGRTFSGYIMAWFRQTPGKERELVARLGPSSSIQYYRDSVKGRFTLSRDNAKNTLYLQMNSLKPEDTAVYYCAFTLKWSSDYRSHNAYDYWGQGTQVTVSS", "notes": "as for B1"}, "B11": {"name": "Nb8190 (VHH)", "VHH": "QVQLQESGGGLVQAGGSLRLSCAASGRSLSDYTMGWFRQAPGKEREFVTAITSDGVYANYADSVKGRFTISRDNAKNTAYLQMNSLKPEDTAVYYCAGKTRRSMLMTTGYDYWGQGTQVTVSS", "notes": "as for B1"}, "B12": {"name": "Nb8207 (VHH)", "VHH": "QVQLQESGGGLVQAGASLRLSCTASGRTSSTYPMGWFRQGPGKEREFVAAISWAGSSTYYGDFVKGRFTISRDNAKNTVYLQMNSLKPEDTAVYYCARAARPYAYGLDYSTEASYDYWGQGTQVTVSS", "notes": "as for B1"}, "B13": {"name": "Nb8202 (VHH)", "VHH": "QVQLQESGGGLVQAGESLRLSCAASGGTFIYYGMGWFRQAPGKEREFVASISQTGGDIYAMDFVKGRFTISRDNSKNTLYLQMNSLKPEDTAVYYCAAATSPYASRKLYEYKYWGQGTQVTVSS", "notes": "as for B1"}, "B14": {"name": "Nb8210 (VHH)", "VHH": "B13 VHH with F29L, T54A, M83L, S85T, E110D", "notes": "as for B1"}, "B15": {"name": "Nb8198 (VHH)", "VHH": "QVQLQESGGGLVQTGDSLRLSCAGAERSFNSYTMGWFRQAPGKEREFVAAIAFSGGFTYYAEAVKGRFTISRDSGKNTVYLQMNSLKPEDTAVYYCAARFYGGGYYYQQREYSFWGQGTQVTVSS", "notes": "as for B1"}, "B16": {"name": "Nb8209 (VHH)", "VHH": "QVQLQESGGGLVQPGGSLRLSCAASGNIRSINTMSWYRQAPGKERELVASDSTGGSTGGSTVYAASVKGRFTISRDNAKNTVYLQMNMLKPEDTAVYYCYVYGMSRFGSTISTLFGQGTQVTVSS", "notes": "as for B1"}, "B17": {"name": "Nb8203 (VHH)", "VHH": "QVQLQESGGGLVQAGGSLRLSCAAPGRILTLSRYVMGWFRQAPGKEREFVAAISPGTTDTDYADSVKGRFTISRDNAKNTVYLEMSSLKPEDTAVYVCAAGAASSGTVYRVYGLYNYRGQGTQVTVSS"}, "B18": {"name": "Nb8199 (VHH)", "VHH": "QVQLQESGGGLVQAGGSLRLSCAASGRTFSSYAMGWFRQAPGKEREFVGAIDLSGLYKHYGDSVKGRFTISRDNAKNTVYLQMSSLKPEDTAVYYCAAAGIYYAGSYSPLLYDYWGQGTQVTVSS", "notes": "as for B1"}, "B19": {"name": "Nb8191 (VHH)", "VHH": "QVQLQESGGGLVQPGGSLRLSCTASESVASINIVGWYRQISGKERELVARISSGGTITDYSDSVKGRFTITRDNTKNTVYLQMNSLKRGDTAVYYCNAEYQYGSDWFHIWGQGTQVTVSS", "notes": "as for B1"}, "B20": {"name": "Nb8206 (VHH)", "VHH": "QVQLQESGGGLVQPGGSLRLSCTASGGIFGISAMGWYRQAPGKERELVARITRSGSTNFADSVKDRFTISRDATENTVVLQMNSLKAEDTAVYYCNGQFWEVDNGNIDLWGQGTQVTVSS", "notes": "as for B1"}, "B21": {"name": "Nb8204 (VHH)", "VHH": "QVQLQESGGGLVQPRGSLRLSCAASGSIAIIYTMGWYRQAPLKERELVATVTYGGNTNYADPVKGRFTISRDNNKNTEYLQMSSLQPEDTAVYYCYMRVRSTAWDTDDYWGQGTQVTVSS", "notes": "as for B1"}, "B22": {"name": "Nb8201 (VHH)", "VHH": "QVQLQESGGGLVQPGGSLRLSCAASGSDFSLYAMGWYRQVPGKERELVATITIGGTTNFADSARGRFTISRGNAKNTVYLQMNNLKPEDTAVYYCWSRGSYGRYLETWGQGTQVTVSS", "notes": "as for B1"}, "B23": {"name": "Nb8189 (VHH)", "VHH": "B22 VHH with I53S", "notes": "as for B1"}}, "note": "Substitutions are numbered along the chain they refer to.", "data": [{"biological_target": "T1, PB2 cap-mid-link construct (cap-binding and mid-link domains) from influenza A/duck/Fujian/01/2002 (H5N1) (Influenza A virus …)", "test": "SEC", "conditions": "both partners purified", "values": [{"binder": "B1", "binding result": "binds"}, {"binder": "B2", "binding result": "binds"}, {"binder": "B3", "binding result": "binds"}]}, {"biological_target": "T1, PB2 cap-mid-link construct (cap-binding …)", "test": "not given", "conditions": "not given", "values": [{"binder": "B4", "binding result": "binds"}]}, {"biological_target": "the molecule itself", "test": "cryo-EM structure", "conditions": "not given", "values": [{"binder": "B5", "binding result": "binds"}]}, {"biological_target": "T2, polymerase acidic (PA) subunit of influenza A/Brevig Mission/1/1918 (H1N1) virus (influenza A/Brevig Mission/1/1918 …, UniProt Q3HM39)", "T2 construct": "the PA chain of m1", "test": "cryo-EM structure", "conditions": "both partners purified", "values": [{"binder": "B6", "binding result": "binds"}]}, {"biological_target": "T3, RNA polymerase of influenza A/Brevig Mission/1/1918 (H1N1) virus, heterotrimer of PA, PB1 and PB2 (influenza A/Brevig Mission/1/1918 …, UniProt Q3HM39;Q3HM40;Q3HM41)", "T3 construct": "also called 1918 polymerase; 1918 pandemic influenza virus polymerase; copies: + +", "test": "cryo-EM structure", "conditions": "both partners purified", "values": [{"binder": "B7", "binding result": "binds"}, {"binder": "B8", "binding result": "binds"}, {"binder": "B9", "binding result": "binds"}, {"binder": "B10", "binding result": "binds"}, {"binder": "B11", "binding result": "binds"}, {"binder": "B12", "binding result": "binds"}, {"binder": "B13", "binding result": "binds"}, {"binder": "B14", "binding result": "binds"}, {"binder": "B15", "binding result": "binds"}, {"binder": "B16", "binding result": "binds"}, {"binder": "B17", "binding result": "binds"}, {"binder": "B18", "binding result": "binds"}, {"binder": "B19", "binding result": "binds"}, {"binder": "B20", "binding result": "binds"}, {"binder": "B21", "binding result": "binds"}, {"binder": "B22", "binding result": "binds"}, {"binder": "B23", "binding result": "binds"}]}]}
